{
  "source": "paper PMC5870055",
  "about": "“Structural and Mechanistic Analysis of the Choline Sulfatase from Sinorhizobium melliloti: A Class I Sulfatase Specific for an Alkyl Sulfate Ester” (Journal of Molecular Biology, 2018)",
  "key": {"[1]": {"biological_target": "T1, SmCS (Sinorhizobium meliloti choline sulfatase, BetC) (Sinorhizobium meliloti, UniProt O69787)", "T1 sequence (O69787 1-512)": "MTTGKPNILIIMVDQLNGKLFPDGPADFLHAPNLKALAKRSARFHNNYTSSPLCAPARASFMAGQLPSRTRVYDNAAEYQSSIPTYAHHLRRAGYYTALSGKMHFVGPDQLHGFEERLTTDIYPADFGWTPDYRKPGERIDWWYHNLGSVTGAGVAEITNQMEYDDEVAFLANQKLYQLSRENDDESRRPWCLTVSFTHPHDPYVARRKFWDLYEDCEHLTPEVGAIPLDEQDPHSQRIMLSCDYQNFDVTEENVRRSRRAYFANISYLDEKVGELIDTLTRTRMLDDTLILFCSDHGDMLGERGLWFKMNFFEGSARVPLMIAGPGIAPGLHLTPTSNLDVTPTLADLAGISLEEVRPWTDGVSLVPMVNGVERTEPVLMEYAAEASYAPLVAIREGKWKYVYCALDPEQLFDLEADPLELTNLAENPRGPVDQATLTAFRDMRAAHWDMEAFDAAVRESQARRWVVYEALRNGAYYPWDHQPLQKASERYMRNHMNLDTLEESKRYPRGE", "assay": "product inhibition kinetics", "type": "biochemical", "conditions": "competitive; range over the pH values tested, single values in Fig. S11; 25 °C", "text": "product inhibition kinetics on SmCS (Sinorhizobium meliloti choline sulfatase, BetC) | The reaction product choline can act as a competitive inhibitor, albeit a relatively weak one"}, "[2]": {"tested_on": "C[N+](C)(C)CCOS(=O)(=O)[O-]", "assay": "purified protein", "conditions": "pH 7.6; 25.0 °C"}, "[3]": {"tested_on": "O=[N+]([O-])c1ccc(OS(=O)(=O)O)cc1", "assay": "purified protein", "conditions": "100 mM Tris-HCl pH 7.6, 25 °C"}, "purified protein [4]": {"substrate": "C[N+](C)(C)CCOS(=O)(=O)[O-]", "assay": "purified protein", "conditions": "100 mM Tris-HCl pH 7.6, 25 °C"}, "purified protein [5]": {"substrate": "O=[N+]([O-])c1ccc(OS(=O)(=O)O)cc1", "assay": "purified protein"}, "purified protein [6]": {"substrate": "C[N+](C)(C)CCOP(=O)([O-])O", "assay": "purified protein", "conditions": "100 mM Tris-HCl pH 7.6, 25 °C, no metal added"}, "purified protein [7]": {"substrate": "COP(=O)(O)Oc1ccc([N+](=O)[O-])cc1", "assay": "purified protein", "conditions": "100 mM imidazole-HCl pH 6.0, 25 °C"}, "[8]": {"conditions": "100 mM imidazole-HCl pH 6.0, 25 °C"}, "[9]": {"conditions": "100 mM Tris-HCl pH 7.6, 25 °C, made without FGE"}},
  "data": [
    {"molecule": "C[N+](C)(C)CCO", "note": "[choline]", "values": [
      {"measurement": "KIC", "setting": "[1]", "value": "~ 52–6.3 mM"}
    ]},
    {"molecule": "SmCS (Sinorhizobium meliloti choline sulfatase, BetC) (Sinorhizobium meliloti 1021; DEL501-512)", "values": [
      {"measurement": "Km", "setting": "[2]", "value": "(1.09 ± 0.01) × 10^-2 M"},
      {"measurement": "kcat", "setting": "[2]", "value": "0.021 ± 0.002", "unit": "s⁻¹"},
      {"measurement": "kcat/Km", "setting": "[2]", "value": "1.93 ± 0.01", "unit": "M⁻¹ s⁻¹"},
      {"measurement": "Km", "setting": "[3]", "value": "(9.0 ± 0.1) × 10^-2 M"},
      {"measurement": "kcat", "setting": "[3]", "value": "0.0159 ± 0.0001", "unit": "s⁻¹"},
      {"measurement": "kcat/Km", "setting": "[3]", "value": "0.178 ± 0.004", "unit": "M⁻¹ s⁻¹"}
    ]},
    {"molecule": "SmCS (Sinorhizobium meliloti choline sulfatase, BetC) (Sinorhizobium meliloti 1021) (protein) MTTGKPNILIIMVDQLNGKLFPDGPADFLHAPNLKALAKRSARFHNNYTSSPLCAPARASFMAGQLPSRTRVYDNAAEYQSSIPTYAHHLRRAGYYTALSGKMHFVGPDQLHGFEERLTTDIYPADFGWTPDYRKPGERIDWWYHNLGSVTGAGVAEITNQMEYDDEVAFLANQKLYQLSRENDDESRRPWCLTVSFTHPHDPYVARRKFWDLYEDCEHLTPEVGAIPLDEQDPHSQRIMLSCDYQNFDVTEENVRRSRRAYFANISYLDEKVGELIDTLTRTRMLDDTLILFCSDHGDMLGERGLWFKMNFFEGSARVPLMIAGPGIAPGLHLTPTSNLDVTPTLADLAGISLEEVRPWTDGVSLVPMVNGVERTEPVLMEYAAEASYAPLVAIREGKWKYVYCALDPEQLFDLEADPLELTNLAENPRGPVDQATLTAFRDMRAAHWDMEAFDAAVRESQARRWVVYEALRNGAYYPWDHQPLQKASERYMRNHMNLDTLEESKRYPRGE", "values": [
      {"measurement": "Km", "setting": "purified protein [4]; no metal added", "value": "(5.0 ± 0.6) × 10^-4 M"},
      {"measurement": "kcat", "setting": "purified protein [4]; no metal added", "value": "2.4 ± 0.2", "unit": "s⁻¹"},
      {"measurement": "kcat/Km", "setting": "purified protein [4]; no metal added", "value": "4800 ± 500", "unit": "M⁻¹ s⁻¹"},
      {"measurement": "Km", "setting": "purified protein [5]; [8]", "value": "(1.9 ± 0.2) × 10^-2 M"},
      {"measurement": "kcat", "setting": "purified protein [5]; [8]", "value": "0.22 ± 0.01", "unit": "s⁻¹"},
      {"measurement": "kcat/Km", "setting": "purified protein [5]; [8]", "value": "12 ± 2", "unit": "M⁻¹ s⁻¹"},
      {"measurement": "Km", "setting": "purified protein [6]", "value": "(2.1 ± 0.2) × 10^-3 M"},
      {"measurement": "kcat", "setting": "purified protein [6]", "value": "0.0267 ± 0.0001", "unit": "s⁻¹"},
      {"measurement": "kcat/Km", "setting": "purified protein [6]", "value": "13 ± 1", "unit": "M⁻¹ s⁻¹"},
      {"measurement": "kcat", "setting": "purified protein [7]", "value": "> 0.004", "unit": "s⁻¹"}
    ]},
    {"molecule": "SmCS (Sinorhizobium meliloti choline sulfatase, BetC) (Sinorhizobium meliloti 1021; H104A) (protein) MTTGKPNILIIMVDQLNGKLFPDGPADFLHAPNLKALAKRSARFHNNYTSSPLCAPARASFMAGQLPSRTRVYDNAAEYQSSIPTYAHHLRRAGYYTALSGKMAFVGPDQLHGFEERLTTDIYPADFGWTPDYRKPGERIDWWYHNLGSVTGAGVAEITNQMEYDDEVAFLANQKLYQLSRENDDESRRPWCLTVSFTHPHDPYVARRKFWDLYEDCEHLTPEVGAIPLDEQDPHSQRIMLSCDYQNFDVTEENVRRSRRAYFANISYLDEKVGELIDTLTRTRMLDDTLILFCSDHGDMLGERGLWFKMNFFEGSARVPLMIAGPGIAPGLHLTPTSNLDVTPTLADLAGISLEEVRPWTDGVSLVPMVNGVERTEPVLMEYAAEASYAPLVAIREGKWKYVYCALDPEQLFDLEADPLELTNLAENPRGPVDQATLTAFRDMRAAHWDMEAFDAAVRESQARRWVVYEALRNGAYYPWDHQPLQKASERYMRNHMNLDTLEESKRYPRGE", "values": [
      {"measurement": "Km", "setting": "purified protein [4]", "value": "(1.33 ± 0.01) × 10^-2 M"},
      {"measurement": "kcat", "setting": "purified protein [4]", "value": "0.0347 ± 0.0001", "unit": "s⁻¹"},
      {"measurement": "kcat/Km", "setting": "purified protein [4]", "value": "2.6 ± 0.02", "unit": "M⁻¹ s⁻¹"}
    ]},
    {"molecule": "SmCS (Sinorhizobium meliloti choline sulfatase, BetC) (Sinorhizobium meliloti 1021; K309L) (protein) MTTGKPNILIIMVDQLNGKLFPDGPADFLHAPNLKALAKRSARFHNNYTSSPLCAPARASFMAGQLPSRTRVYDNAAEYQSSIPTYAHHLRRAGYYTALSGKMHFVGPDQLHGFEERLTTDIYPADFGWTPDYRKPGERIDWWYHNLGSVTGAGVAEITNQMEYDDEVAFLANQKLYQLSRENDDESRRPWCLTVSFTHPHDPYVARRKFWDLYEDCEHLTPEVGAIPLDEQDPHSQRIMLSCDYQNFDVTEENVRRSRRAYFANISYLDEKVGELIDTLTRTRMLDDTLILFCSDHGDMLGERGLWFLMNFFEGSARVPLMIAGPGIAPGLHLTPTSNLDVTPTLADLAGISLEEVRPWTDGVSLVPMVNGVERTEPVLMEYAAEASYAPLVAIREGKWKYVYCALDPEQLFDLEADPLELTNLAENPRGPVDQATLTAFRDMRAAHWDMEAFDAAVRESQARRWVVYEALRNGAYYPWDHQPLQKASERYMRNHMNLDTLEESKRYPRGE", "values": [
      {"measurement": "Km", "setting": "purified protein [5]; 100 mM Tris-HCl pH 7.6, 25 °C", "value": "(8.9 ± 2.7) × 10^-2 M"},
      {"measurement": "kcat", "setting": "purified protein [5]; 100 mM Tris-HCl pH 7.6, 25 °C", "value": "1.6e-05 ± 5e-06", "unit": "s⁻¹"},
      {"measurement": "kcat/Km", "setting": "purified protein [5]; 100 mM Tris-HCl pH 7.6, 25 °C", "value": "0.000176 ± 1e-06", "unit": "M⁻¹ s⁻¹"}
    ]},
    {"molecule": "SmCS (Sinorhizobium meliloti choline sulfatase, BetC) (Sinorhizobium meliloti 1021; C54S) (protein) MTTGKPNILIIMVDQLNGKLFPDGPADFLHAPNLKALAKRSARFHNNYTSSPLSAPARASFMAGQLPSRTRVYDNAAEYQSSIPTYAHHLRRAGYYTALSGKMHFVGPDQLHGFEERLTTDIYPADFGWTPDYRKPGERIDWWYHNLGSVTGAGVAEITNQMEYDDEVAFLANQKLYQLSRENDDESRRPWCLTVSFTHPHDPYVARRKFWDLYEDCEHLTPEVGAIPLDEQDPHSQRIMLSCDYQNFDVTEENVRRSRRAYFANISYLDEKVGELIDTLTRTRMLDDTLILFCSDHGDMLGERGLWFKMNFFEGSARVPLMIAGPGIAPGLHLTPTSNLDVTPTLADLAGISLEEVRPWTDGVSLVPMVNGVERTEPVLMEYAAEASYAPLVAIREGKWKYVYCALDPEQLFDLEADPLELTNLAENPRGPVDQATLTAFRDMRAAHWDMEAFDAAVRESQARRWVVYEALRNGAYYPWDHQPLQKASERYMRNHMNLDTLEESKRYPRGE", "values": [
      {"measurement": "Km", "setting": "purified protein [4]; made without FGE", "value": "(9.4 ± 0.1) × 10^-3 M"},
      {"measurement": "kcat", "setting": "purified protein [4]; made without FGE", "value": "0.0112 ± 0.0002", "unit": "s⁻¹"},
      {"measurement": "kcat/Km", "setting": "purified protein [4]; made without FGE", "value": "1.19 ± 0.02", "unit": "M⁻¹ s⁻¹"},
      {"measurement": "Km", "setting": "purified protein [5]; [9]", "value": "(3.9 ± 0.2) × 10^-2 M"},
      {"measurement": "kcat", "setting": "purified protein [5]; [9]", "value": "7.3e-05 ± 1e-06", "unit": "s⁻¹"},
      {"measurement": "kcat/Km", "setting": "purified protein [5]; [9]", "value": "0.00189 ± 6e-05", "unit": "M⁻¹ s⁻¹"}
    ]},
    {"molecule": "SmCS (Sinorhizobium meliloti choline sulfatase, BetC) (Sinorhizobium meliloti 1021; E386L) (protein) MTTGKPNILIIMVDQLNGKLFPDGPADFLHAPNLKALAKRSARFHNNYTSSPLCAPARASFMAGQLPSRTRVYDNAAEYQSSIPTYAHHLRRAGYYTALSGKMHFVGPDQLHGFEERLTTDIYPADFGWTPDYRKPGERIDWWYHNLGSVTGAGVAEITNQMEYDDEVAFLANQKLYQLSRENDDESRRPWCLTVSFTHPHDPYVARRKFWDLYEDCEHLTPEVGAIPLDEQDPHSQRIMLSCDYQNFDVTEENVRRSRRAYFANISYLDEKVGELIDTLTRTRMLDDTLILFCSDHGDMLGERGLWFKMNFFEGSARVPLMIAGPGIAPGLHLTPTSNLDVTPTLADLAGISLEEVRPWTDGVSLVPMVNGVERTEPVLMEYAALASYAPLVAIREGKWKYVYCALDPEQLFDLEADPLELTNLAENPRGPVDQATLTAFRDMRAAHWDMEAFDAAVRESQARRWVVYEALRNGAYYPWDHQPLQKASERYMRNHMNLDTLEESKRYPRGE", "values": [
      {"measurement": "kcat", "setting": "purified protein [4]", "value": "> 0.012", "unit": "s⁻¹"},
      {"measurement": "kcat/Km", "setting": "purified protein [4]", "value": "0.81 ± 0.01", "unit": "M⁻¹ s⁻¹"},
      {"measurement": "Km", "setting": "purified protein [5]; 100 mM Tris-HCl pH 7.6, 25 °C", "value": "(5.7 ± 0.4) × 10^-2 M"},
      {"measurement": "kcat", "setting": "purified protein [5]; 100 mM Tris-HCl pH 7.6, 25 °C", "value": "0.76 ± 0.03", "unit": "s⁻¹"},
      {"measurement": "kcat/Km", "setting": "purified protein [5]; 100 mM Tris-HCl pH 7.6, 25 °C", "value": "13 ± 1", "unit": "M⁻¹ s⁻¹"}
    ]}
  ]
}
